Target: HLA-B*07 (human)
Experiment: UV peptide exchange ELISA; +++ = yield >50

Row | Binder | peptide exchange yield
1 | SPRSGVLL | 50 to 75%
2 | FPNAGPRHLL | 50 to 75%
3 | APRPGNWIL | 50 to 75%
4 | SPGDKRLAAYL | 50 to 75%
5 | FPRKPYEGRV | 50 to 75%
6 | QPENSLEGISL | 50 to 75%
7 | RPAPGPAPFV | 50 to 75%
8 | SPVGVGQRL | 50 to 75%
9 | LPNTGRIGQL | 50 to 75%
10 | IPDTIASVL | 50 to 75%
11 | TAYPSLRLL | 50 to 75%
12 | AVHEIGHSL | 50 to 75%
13 | LPWEQNEQV | 50 to 75%
14 | APGGSSRSSL | 50 to 75%
15 | MAYDRFIAI | 50 to 75%
16 | VPHTGRYTCL | 50 to 75%
17 | TPELKSSIL | 50 to 75%
18 | RPGTGQGGL | 50 to 75%
19 | VLPRAGGAFLM | 50 to 75%
20 | SPSTSRTPL | 50 to 75%
21 | MPVPGILL | 50 to 75%
22 | RVMLPKAAL | 50 to 75%
23 | IPETASVVAI | 50 to 75%
24 | HPRAPGEQQRL | 50 to 75%
25 | RPTAASQSRAL | 50 to 75%
26 | SPRGTTSTL | 50 to 75%
27 | KIEQIRAVL | 50 to 75%
28 | SPIIHSIL | 50 to 75%
29 | KPYDGIPAS | 50 to 75%
30 | LPQRPNARL | 50 to 75%

Source: patent US20200040057A1 (IMMATICS BIOTECHNOLOGIES, published 2020)
